T1: Hendra virus attachment glycoprotein (HeV-G), HA-tagged, expressed on the cell surface (Hendra virus, UniProt O89343 1-604)
T1 construct: also called HNV-G; G of HeVpp; not shown: HA, C-terminal, kept
T1 sequence: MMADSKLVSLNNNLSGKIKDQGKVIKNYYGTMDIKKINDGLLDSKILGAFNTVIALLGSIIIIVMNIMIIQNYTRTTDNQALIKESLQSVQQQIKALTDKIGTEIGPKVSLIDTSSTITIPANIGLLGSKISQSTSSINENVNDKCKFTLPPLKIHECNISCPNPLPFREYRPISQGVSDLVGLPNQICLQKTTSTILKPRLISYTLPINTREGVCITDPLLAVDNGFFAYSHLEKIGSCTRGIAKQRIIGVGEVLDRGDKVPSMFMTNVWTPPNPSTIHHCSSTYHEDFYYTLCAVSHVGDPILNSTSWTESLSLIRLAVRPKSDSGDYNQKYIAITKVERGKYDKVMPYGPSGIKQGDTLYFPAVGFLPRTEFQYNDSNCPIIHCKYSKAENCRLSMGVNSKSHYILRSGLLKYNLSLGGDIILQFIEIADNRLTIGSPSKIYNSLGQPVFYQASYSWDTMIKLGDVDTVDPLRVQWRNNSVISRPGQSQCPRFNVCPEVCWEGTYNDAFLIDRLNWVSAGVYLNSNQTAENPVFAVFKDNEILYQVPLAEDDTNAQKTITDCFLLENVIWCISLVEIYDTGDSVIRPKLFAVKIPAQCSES

T2: Nipah virus attachment glycoprotein (NiV-G), HA-tagged, expressed on the cell surface (Nipah virus, UniProt Q9IH62 1-602)
T2 construct: also called HNV-G; G of NiVpp
T2 sequence: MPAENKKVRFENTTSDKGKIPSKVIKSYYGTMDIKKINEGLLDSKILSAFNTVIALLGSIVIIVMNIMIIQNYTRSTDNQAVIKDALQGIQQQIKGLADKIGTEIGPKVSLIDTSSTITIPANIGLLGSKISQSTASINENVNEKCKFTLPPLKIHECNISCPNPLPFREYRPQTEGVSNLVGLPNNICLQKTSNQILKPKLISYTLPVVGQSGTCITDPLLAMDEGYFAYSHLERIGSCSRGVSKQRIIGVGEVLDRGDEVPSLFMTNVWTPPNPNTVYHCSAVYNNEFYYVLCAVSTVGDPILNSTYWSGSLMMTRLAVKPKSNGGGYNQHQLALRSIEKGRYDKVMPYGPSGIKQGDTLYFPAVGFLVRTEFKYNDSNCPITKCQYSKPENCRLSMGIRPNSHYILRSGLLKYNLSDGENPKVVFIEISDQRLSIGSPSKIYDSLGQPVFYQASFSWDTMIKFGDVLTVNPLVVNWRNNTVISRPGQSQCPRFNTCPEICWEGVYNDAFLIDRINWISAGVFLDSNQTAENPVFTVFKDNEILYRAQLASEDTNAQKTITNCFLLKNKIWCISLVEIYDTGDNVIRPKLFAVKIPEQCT

T3: Ghana virus attachment glycoprotein (GhV-G), HA-tagged, expressed on the cell surface (Ghana virus, UniProt I0E093 1-632)
T3 construct: also called Ghanaian bat henipavirus G; HNV-G; not shown: HA, C-terminal, kept
T3 sequence: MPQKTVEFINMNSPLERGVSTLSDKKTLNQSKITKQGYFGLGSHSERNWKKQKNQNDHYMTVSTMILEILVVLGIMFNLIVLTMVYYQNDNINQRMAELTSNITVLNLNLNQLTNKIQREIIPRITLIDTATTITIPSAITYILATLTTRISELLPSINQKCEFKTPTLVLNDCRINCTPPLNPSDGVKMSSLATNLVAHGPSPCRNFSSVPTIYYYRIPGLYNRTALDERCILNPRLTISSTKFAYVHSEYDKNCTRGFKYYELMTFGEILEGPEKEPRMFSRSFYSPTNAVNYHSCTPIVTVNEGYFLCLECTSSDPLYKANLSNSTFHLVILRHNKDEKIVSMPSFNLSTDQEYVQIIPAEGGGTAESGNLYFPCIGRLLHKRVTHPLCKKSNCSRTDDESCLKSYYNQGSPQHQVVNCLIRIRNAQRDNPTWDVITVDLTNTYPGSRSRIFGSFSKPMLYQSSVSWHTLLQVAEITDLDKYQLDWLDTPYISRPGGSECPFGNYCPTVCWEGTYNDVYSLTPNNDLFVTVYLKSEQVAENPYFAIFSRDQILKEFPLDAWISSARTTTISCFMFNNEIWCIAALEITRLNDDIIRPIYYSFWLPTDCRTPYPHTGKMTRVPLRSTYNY

T4: CedV-G receptor-binding six-bladed β-propeller domain (residues 209–622) (Cedar virus, UniProt J7H333 209-622, high-mannose N-linked glycans (expression in the presence of kifunensine))
T4 sequence: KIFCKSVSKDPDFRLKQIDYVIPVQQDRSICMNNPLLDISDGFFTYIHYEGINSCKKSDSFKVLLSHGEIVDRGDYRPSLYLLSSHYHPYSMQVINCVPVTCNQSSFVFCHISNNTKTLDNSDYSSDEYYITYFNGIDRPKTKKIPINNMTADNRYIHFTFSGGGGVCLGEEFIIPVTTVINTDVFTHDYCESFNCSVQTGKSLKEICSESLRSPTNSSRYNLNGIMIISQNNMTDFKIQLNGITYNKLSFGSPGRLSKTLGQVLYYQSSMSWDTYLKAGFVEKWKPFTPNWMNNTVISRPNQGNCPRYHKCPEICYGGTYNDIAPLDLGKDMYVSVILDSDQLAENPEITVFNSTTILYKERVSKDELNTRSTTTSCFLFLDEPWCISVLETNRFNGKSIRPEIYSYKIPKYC


Assays:
[1] = target: Cedar virus attachment glycoprotein (CedV-G), HA-tagged, expressed on the cell surface (Cedar virus); test: flow cytometry on cells
[2] = target: T1, Hendra virus attachment glycoprotein …; test: flow cytometry on cells; details: one partner purified
[3] = target: T2, Nipah virus attachment glycoprotein …; test: flow cytometry on cells; details: one partner purified
[4] = target: T3, Ghana virus attachment glycoprotein …; test: flow cytometry on cells; details: one partner purified
[5] = target: T4, CedV-G receptor-binding six-bladed …; test: crystal structure; details: both partners purified

Molecule | Kd [1] | Kd [2] | Kd [3] | also measured
Soluble human ephrin-B1–Fc (from UniProt P98172) (Fc fusion) | 4 nM | – | – | –
Soluble human ephrin-B2–Fc (from UniProt P52799) (Fc fusion) | 2.3 nM | – | – | –
Soluble human ephrin-B2–Fc (Fc fusion, also called sEphrin-B2–Fc; ephrin-B–Fc; source: bought: R&D Systems) IVLEPIYWNSSNSKFLPGQGLVLYPQIGDKLDIICPKVDSKTVGQYEYYKVYMVDKDQADRCTIKKENTPLLNCAKPDQDIKFTIKFQEFSPNLWGLEFQKNKDYYIISTSNGSLEGLDNQEGGVCQTRAMKILMKVGQDASSAGSTRNKDPTRRPELEAGTNGRSSTTSPFVKPNPGSSTDGNSAGHSGNNILGSEVALFA | – | 0.86 nM | 1.4 nM | Kd [4]: 0.82 nM
Soluble human ephrin-B3–Fc (Fc fusion, also called sEphrin-B3–Fc; ephrin-B–Fc; source: bought: R&D Systems) LSLEPVYWNSANKRFQAEGGYVLYPQIGDRLDLLCPRARPPGPHSSPNYEFYKLYLVGGAQGRRCEAPPAPNLLLTCDRPDLDLRFTIKFQEYSPNLWGHEFRSHHDYYIIATSDGTREGLESLQGGVCLTRGMKVLLRVGQSPRGGAVPRKPVSEMPMERDRGAAHSLEPGKENLPGDPTSNATSRGAEGPLPPPSMP | – | 5.3 nM | 2 nM | –
Human ephrin-B1 N-terminal extracellular domain (residues 29–167) (domain or fragment, high-mannose N-linked glycans (expression in the presence of kifunensine), also called extracellular β-barrel domain of human ephrin-B1; ephrin-B1 ectodomain) AKNLEPVSWSSLNPKFLSGKGLVIYPKIGDKLDIICPRAEAGRPYEYYKLYLVRPEQAAACSTVLDPNVLVTCNRPEQEIRFTIKFQEFSPNYMGLEFKKHHDYYITSTSNGSLEGLENREGGVCRTRTMKIIMKVGQD | – | – | – | stoichiometry N [5]: 1

Source: article PMC6925387 (Life Science Alliance, 2019)
